Drawing on the FLAb antibody collection, this text covers Tm for 13 sequences.

The nature of one data set: melting temperature. Conditions: Circular dichroism. (In general: Circular dichroism is widely used to follow secondary structure.)
In the case of “QVQLVESGGGLVQAGGSLRLSCAASGRTYTMGWFRQAPGKEREFVAAMRWSDTDYADSLKGRFTISRDNANNAMYLQMNSLGPEDTAVYYCAAGEAWLARSTHHYDYWGQGTQVTVSS”, the Tm stood at 72.3 °C.

For “QVQLVESGGGLVQPGGSLRLSCAASGDTYGSYWMGWFRQAPGQGLEAVAAINRGGGYTVYADSVKGRFTISRDNSKNTLYLQMNSLRAEDTAVYYCAASGVLGGLHEDWFNYWGQGTLVTVSSHHHHHH”, the Tm came to 74 °C.

For the sequence “QVQLVESGGGLVQPGGSLRLSCAASGYTYISGWFRQAPGQGLEAVAAIRSSDGTTYYADSVKGRFTISRDNSKNTLYLQMNSLRAEDTAVYYCAATEVAGWPLDIGIYDYWGQGTLVTVSS”, the Tm stood at 63.4 °C. The same measure, in the same setting: as for “TRVDQTPRTATKETGESLTIICVLTDTSCVLHSTSWFRKNPGTTDWERMSIGGRYVESVNKGAKSFSLRIKDLTVADSATYYCKAQSHEYMEVCPYDWYDGAGTVLTVK”, the figure is 55 °C; as for “TRVDQTPRTATKETGESLTINCVLTGTSCSLYSTSWFRKNPGTTDWERISIGGRYVESVNKGAKSFSLRIKDLTVADSATYYCKAQKHCGYDWYDGAGTALTVK”, 72 °C.

Staying with this data set, now noted: DSF (SYPRO).
Turning to “QVQLQESGGGSVQAGGSLRLSCVASEYDFNSYSSVSVGWFRQAPGKECVLVSRIGNDARTDYSDNVKGRFTISRDNAKRTAYLEMNSLKAEDTAVYYCAANQLSSAVVGTEYPCSKAAFAHWGQGTQVTVSS”, the Tm came out at 64.8 °C. The same measure, in the same setting: as for “QVQLVESGGGLVQAGGSLRLSCAVSGLGAHRVGWFRRAPGKEREFVAAIGANGGNTNYLDSVKGRFTISRDNAKNTIYLQMNSLKPQDTAVYYCAARDIETAEYTYWGQGTQVTVSS”, the figure is 72.8 °C. Same read-out and setting: the same measure for “QVQLVESGGGSVQAGGSLRLSCAASGSISSITYLGWFRQAPGKEREGVAALSTSSGTTYYADSVKGRFTVSLDNAENTVYLQMNSLKPEDTALYYCAAASSGSSSPLSSSSYTYWGQGTQVTVSS”: 95 °C.

The same data set, now with this note: Other.
On to “QVQLVESGGGLVQAGGSLRLSCAASGYAYTYIYMGWFRQAPGKEREGVAAMDSGGGGTLYADSVKGRFTISRDKGKNTVYLQMDSLKPEDTATYYCAAGGYELRDRTYGQWGQGTQVTVSSAAALEHHHHHH”, for which the Tm stood at 64.2 °C.

Still in this data set, the particulars now being: nanoDSF.
Take “QVQLQESGGGSVQAGGSLRLSCVASEYDFNSYSSVSVGWFRQAPGKECVLVSRIGNDARTDYSDNVKGRFTISRDNAKRTAYLEMNSLKAEDTAVYYCAANQLSSAVVGTEYPCSKAAFAHWGQGTQVTVSS”: the Tm worked out at 64.5 °C.

For “TGGALVQAGGSLRLSCAASETSSVSLSWMGWYRQAPGKERELVAGINRDRPKYKESVKGRFTISRDNAQNTVYLQMNSLKPEDTAVYYCNTVPPRGDYWGQGTQV”, the Tm stood at 65.7 °C. The same measure, in the same setting: as for “TGGGLVQAGASLRLSCAASGRTFSTDHMGWFRQAPQKEREFVAAINAWSGLSIYYADSVKGRFTISRDNDKKTAYLQMNSLKPEDTAVYYCAAKEMGRGWVPQSSDDYDAWGQGTQV”, the figure is 66.6 °C; as for “TGGGLVQPGGSLRLSCAASGSISSINAMGWYRQAPGKQRELVAAITIRGNTVYGDSVKGRFTVSRDNAKNTVYLQMNSLKPEDTAVYYCNAKSTPSLYAAGYGVDYWGEGTLV”, 69.8 °C.

For the sequence “TGGGWVQAGGSLRLSCAASGRAASGNAMAWFRQAPGKEREFVALISWSGGRPYYANSVKGRFAISRDNATNTVYLQMNRLKPEDTAVYYCAASPTIAILPTPYDYWGQGTQV”, the Tm worked out at 75.3 °C.
